Target: neuropilin-1 (NRP1) (mouse (endogenous protein of the mouse …, UniProt P97333 22-923))
Test: co-immunoprecipitation with anti-NRP1 antibody from NSC-34 lysates, anti-V5 Western blot
Description: Cells were grown to 70% confluency before transfection. A human wild-type, P234KY, or ΔETAQ GARS cDNA was cloned into the pcDNA6 plasmid to express GARS in-frame with a V5 tag. Transfections were performed using Lipofectamine 2000 (Invitrogen) according to the manufacturer's instruction. For cell lysate preparations, NSC-34 cells (36 hours after transfection) were washed twice in phosphate-buffered saline (PBS), scraped into PBS, pelleted, and resuspended in Pierce IP Lysis Buffer (Thermo Scientific) for 30 min and centrifuged for 7 min at 12,000×g; the insoluble fraction was discarded. Protein G beads (Invitrogen) were pre-incubated with anti-NRP1 antibody (Abcam) or rabbit IgG (Cell signaling) for 30 min before mixed with the cell lysates for overnight. […] Wild-type and mutant GARS proteins were detected using mouse monoclonal V5 antibody purchased from Invitrogen. NRP1 was detected by utilizing the same antibody for co-immunoprecipitation. […]
After immunoprecipitation with an anti-NRP1 antibody, proteins were subjected to Western blot analysis using an anti-V5 antibody. […] Nevertheless, no interaction between ΔETAQ GARS and NRP1 was detected in unbiased mass spectrometry analyses of proteins immuno-precipitated from mouse neuroblastoma (MN1) cells expressing FLAG-tagged wild-type or V5-tagged ΔETAQ GARS.

binding result: no binding
B1: V5-tagged wild-type human GARS (glycyl-tRNA synthetase) (enzyme, UniProt P41250-2 1-685, looked up)
chain: MDGAGAEEVLAPLRLAVRQQGDLVRKLKEDKAPQVDVDKAVAELKARKRVLEAKELALQPKDDIVDRAKMEDTLKRRFFYDQAFAIYGGVSGLYDFGPVGCALKNNIIQTWRQHFIQEEQILEIDCTMLTPEPVLKTSGHVDKFADFMVKDVKNGECFRADHLLKAHLQKLMSDKKCSVEKKSEMESVLAQLDNYGQQELADLFVNYNVKSPITGNDLSPPVSFNLMFKTFIGPGGNMPGYLRPETAQGIFLNFKRLLEFNQGKLPFAAAQIGNSFRNEISPRSGLIRVREFTMAEIEHFVDPSEKDHPKFQNVADLHLYLYSAKAQVSGQSARKMRLGDAVEQGVINNTVLGYFIGRIYLYLTKVGISPDKLRFRQHMENEMAHYACDCWDAESKTSYGWIEIVGCADRSCYDLSCHARATKVPLVAEKPLKEPKTVNVVQFEPSKGAIGKAYKKDAKLVMEYLAICDECYITEMEMLLNEKGEFTIETEGKTFQLTKDMINVKRFQKTLYVEEVVPNVIEPSFGLGRIMYTVFEHTFHVREGDEQRTFFSFPAVVAPFKCSVLPLSQNQEFMPFVKELSEALTRHGVSHKVDDSSGSIGRRYARTDEIGVAFGVTIDFDTVNKTPHTATLRDRDSMRQIRAEISELPSIVQDLANGNITWADVEARYPLFEGQETGKKETIEE
notes: Expressed by transfection in mouse NSC-34 cells and tested from the cell lysate; also called wild-type GARS; WT GARS; not shown: V5 tag expressed in-frame from pcDNA6

Reference: US20210324417A1 (RESEARCH INSTITUTE AT NATIONWIDE CHILDREN S HOSPITAL, published 2021)
